# Patent US9981005 (dated 2018)
# Read-outs that look alike come from different tables or passages of the source. Where no end group is shown, it is not given here. [ ]: non-standard residue; d: D form. pT = C[C@@H](OP(=O)(O)O)[C@H](N)C(=O)O; pS = N[C@@H](COP(=O)(O)O)C(=O)O; Flu = fluorescein
# Legend:
# [1] = molecular target: T1, Skp1-FBXW7 complex (human FBXW7 residues 263-707 with truncated Skp1) (UniProt P63208 1-163)
# [2] = molecular target: T1, Skp1-FBXW7 complex (human FBXW7 …); assay: fluorescence polarisation
Binder,Kd [1] [nM],Kd [2] [nM]
Flu-VPP[pT]PPGSH [Flu-VPPpTPPGSH (singly phosphorylated fluorescein-tagged DISC1 phosphodegron peptide)],2300,
AKKAMLSEQNRASPLPSGLLTPPQSGKKQSS (other) [Cyclin E (test agent of the FP assay)],,2000
Flu-VPP[pT]PPG[pS]H [Flu-VPPpTPPGpSH (doubly phosphorylated fluorescein-tagged DISC1 phosphodegron peptide)],1200,
